Measured values published in patent CN111138527A (INST MILITARY MEDICINE ACADEMY MILITARY SCIENCES PLA, dated 2020).

Molecular target: 截短型抗原蛋白GPdM (Ebola virus (EBOV), UniProt Q05320 33-632)
Test: ELISA on coated truncated GP

B1: 抗埃博拉病毒糖蛋白GP1亚基的单克隆抗体4F1 (antibody, V domains shown)
VH: EVQLVESGGGLVQPGGSLRLSCAASGFSFRIYDMHWVRQVTGRGLEWVSAIGSASDTYYRDSVKGRFTISRENAKNSLYLQMNSLRAGDTAVYYCARASFGELMFDLWGQGTLVTVSS
VL: DIQMTQSPSSLSLSPGERATLSCRASQSVGSSLAWYQQKPGQAPRLLIYAASSRATGFPDRFSGSGSGTDFTLTISRLEPEDFAVYYCQQYGGSPLTFGGGTKVEIKT
Work on B1 yielded an EC50 of 6.9 ng/mL.
